Assay results as given in PMC5084272.
Where “and” joins values, the source holds several entries; their conditions need not be identical. Equal entries are not always repeated.

Target: EGFP-labeled Kif15 (EGFP-Kif15) (human)
Assay: single-molecule fluorescence intensity and photobleaching steps

## EGFP-labeled Kif15 (EGFP-Kif15) (natural protein)
  stoichiometry N: 2 and > 2
